{"source": "paper PMC12234471", "about": "“The apicoplast localized isocitrate dehydrogenase is needed for de novo fatty acid synthesis in the apicoplast of Toxoplasma gondii” (Frontiers in Cellular and Infection Microbiology, 2025)", "substrate": "O=C(O)C[C@H](C(=O)O)[C@@H](O)C(=O)O", "assay": "purified protein", "assay_type": "biochemical, Toxoplasma gondii", "conditions": "NADP+ co-substrate; Solarbio ICDHm kit"}
{"protein": "TgICDH1 (Toxoplasma gondii) (protein, truncation AA180-594 (leader peptide removed), cloned from RH cDNA in pET-sumo, His-tag resin purified from E. coli BL21) QRIKVDQPVVEMDGDEMARVIWAMIKEKLILPYLDIPLMYYDLSIQHRDKTDDQVTIDAALAIKRHGVGVKCATITPDEQRVKEFNLKKMWKSPNATIRNTLDGTIFRAPILMKNVPRLVPSWTKPIIIGRHAHADQYKALDFTVDKPGRFVMSFIPADKSNPEVHEVYEFKGGGVALGMYNTDASIKGFAHSCFQYALDQKMPLYLSTKNTVLKKYDGRFKDIFQTIYEKEYKQKFEEAGLWYEHRLIDDMVAQAIKSSGGFVWACKNYDGDVQSDVVAQGYGSLGLMTSVLVCPDGKTIEAEAAHGTVTRHYRQYQKGIKTSTNPIASIYAWTRSLGHRAKLDNNQKLKEFVEALEDACVETVEAGFMTKDLALAIKGDKLTDRDYLCTEDFMDKLARVAERKLLERQIISKA", "values": [{"measurement": "Km", "value": 160.7, "unit": "µM"}]}
